Experimental data taken from US20170267750A1, “Method of Treating Ovarian and Renal Cancer Using Antibodies Against T Cell Immunoglobulin Domain and Mucin Domain 1 (TIM-1) Antigen” (Celldex Therapeutics, Inc., priority 2005, published 2017).

Biological target: TIM-1 (T cell, immunoglobulin domain and mucin domain 1), cell membrane-bound (human) (UniProt Q96D42)
Test: FACS on polarized human CD4+ Th2 cells, 10 ug/mL mAb, goat anti-human PE (control antibody background)

Chain of TIM-1 (T cell, immunoglobulin domain and mucin domain 1), cell membrane-bound (human) (Q96D42 21-364): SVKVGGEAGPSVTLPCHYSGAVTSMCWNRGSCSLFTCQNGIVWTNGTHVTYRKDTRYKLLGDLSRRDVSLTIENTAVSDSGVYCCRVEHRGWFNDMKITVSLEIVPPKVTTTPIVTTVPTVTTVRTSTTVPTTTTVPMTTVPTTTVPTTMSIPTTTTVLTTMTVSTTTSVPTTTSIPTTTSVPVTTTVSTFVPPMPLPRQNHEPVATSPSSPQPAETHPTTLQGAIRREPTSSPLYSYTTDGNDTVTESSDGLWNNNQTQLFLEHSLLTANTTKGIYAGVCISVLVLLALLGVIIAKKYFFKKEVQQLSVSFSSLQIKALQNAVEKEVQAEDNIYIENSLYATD

Geometric mean of fluorescence intensity: 8.4
Substance: isotype matched control mAb PK16.3 (antibody)
